Measured values: US9724426B2, “Agents, uses and methods” (AFFINICON APS, priority 2009, dated 2017)

Molecular target: T1, CD163 on peripheral blood dendritic cells (Homo sapiens, UniProt Q86VB7)
T1 construct: endogenous in cells; host or cells: human peripheral blood monocytes, monocyte-derived macrophages, blood dendritic cells
Test: Flow cytometry of CD163 expression on peripheral blood dendritic cells
Assay type: cell-based
Conditions: CD14-ILT3+HLA-DR+ dendritic cells
Description: Freshly drawn peripheral whole blood samples (approx. 3×10^6 cells) were stained with isotype-matched control antibody (Mouse IgG1 PE, k isotype control, MOPC-21, BD Pharmingen™, San Diego, Calif., USA) or a relevant antibody (anti-CD3 FITC, UCHT1, BD Biosciences, San Diego, Calif., USA; anti-CD11c FITC, KB90, DAKO A/S, Glostrup, Denmark; anti-CD14 FITC, RMO52, IOTests®, Beckman and Coulter, Marseille, France; anti-CD16 FITC, 3G8, BD Biosciences, San Diego, Calif., USA; anti-CD19 FITC, SJ25C1, BD Biosciences, San Diego, Calif., USA; anti-CD20 FITC, CAT 13.6E12, Diatec.com A/S, Oslo, Norway; anti-CD56 FITC, NCAM16.2, BD Biosciences, San Diego, Calif., USA; anti-CD91 FITC, A2MR-a2, BD Biosciences, San Diego, Calif.; anti-HLA-DR FITC, EDU-1, Diatec.com A/S, Oslo, Norway; anti-CD163 PE, MAC2-158, IQ Products, Groningen, The Netherlands; anti-CD163 PE, GHI/61, BD Biosciences, CA, USA; anti-ILT3/CD85k PE-Cy5, ZM3.8, IOTests®, Beckman and Coulter, Marseille, France; anti-HLA-DR PerCP, L234, BD Biosciences, San Diego, Calif.; anti-CD4 APC, EDU-2, Diatec.com A/S, Oslo, Norway; anti-CD14 APC, 18D11, Diatec.com A/S, Oslo, Norway) for 15 minutes at room temperature in the dark. […] For CD163 density quantitation, flow cytometric estimation of antibodies bound/cell (ABCs) was performed using Quantibrite PE beads (Becton Dickinson, San Jose, Calif., USA) as recommended by the manufacturer. […]

T1 sequence (Q86VB7 42-1156): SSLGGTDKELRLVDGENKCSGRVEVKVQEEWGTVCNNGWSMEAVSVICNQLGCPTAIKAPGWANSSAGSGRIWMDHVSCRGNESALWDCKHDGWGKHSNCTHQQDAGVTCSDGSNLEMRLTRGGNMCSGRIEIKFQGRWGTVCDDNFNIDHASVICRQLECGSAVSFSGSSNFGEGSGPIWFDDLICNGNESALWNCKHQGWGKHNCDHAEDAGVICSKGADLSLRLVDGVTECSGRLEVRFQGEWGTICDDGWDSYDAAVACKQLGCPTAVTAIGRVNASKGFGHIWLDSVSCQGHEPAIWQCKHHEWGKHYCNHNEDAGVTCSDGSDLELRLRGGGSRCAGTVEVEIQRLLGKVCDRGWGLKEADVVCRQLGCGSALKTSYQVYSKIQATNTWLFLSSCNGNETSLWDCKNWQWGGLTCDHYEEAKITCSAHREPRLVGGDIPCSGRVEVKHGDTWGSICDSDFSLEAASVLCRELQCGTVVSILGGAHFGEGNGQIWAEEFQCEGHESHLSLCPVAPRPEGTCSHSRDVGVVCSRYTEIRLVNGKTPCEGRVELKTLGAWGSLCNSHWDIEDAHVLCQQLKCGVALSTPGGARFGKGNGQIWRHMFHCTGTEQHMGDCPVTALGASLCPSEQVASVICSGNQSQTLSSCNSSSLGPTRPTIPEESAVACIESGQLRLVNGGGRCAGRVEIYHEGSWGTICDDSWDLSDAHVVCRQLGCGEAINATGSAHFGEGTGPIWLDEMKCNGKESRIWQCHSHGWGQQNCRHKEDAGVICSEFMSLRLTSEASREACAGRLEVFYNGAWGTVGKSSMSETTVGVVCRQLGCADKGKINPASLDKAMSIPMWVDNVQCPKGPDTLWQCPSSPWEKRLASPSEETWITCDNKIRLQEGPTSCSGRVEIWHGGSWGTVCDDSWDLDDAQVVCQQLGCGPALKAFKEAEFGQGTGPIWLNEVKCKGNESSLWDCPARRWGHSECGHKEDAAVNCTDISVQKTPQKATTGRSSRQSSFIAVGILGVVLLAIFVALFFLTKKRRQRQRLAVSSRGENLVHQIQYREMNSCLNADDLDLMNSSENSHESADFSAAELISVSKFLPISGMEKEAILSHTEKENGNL

B1: Mac2-158: murine anti-human CD163 mAb binding SRCR domain 1; VH SEQ ID NO:20, VL SEQ ID NO:21; IQ Products (antibody, V domains shown)
VH: DVQLQESGPGLVKPSQSLSLTCTVTGYSITSDYAWNWIRQFPGNKLEWMGYITYSGITNYNPSLKSQISITRDTSKNQFFLQLNSVTTEDTATYYCVSGTYYFDYWGQGTTLTVSS
VL: SVVMTQTPKSLLISIGDRVTITCKASQSVSSDVAWFQQKPGQSPKPLIYYASNRYTGVPDRFTGSGYGTDFTFTISSVQAEDLAVYFCGQDYTSPRTFGGGTKLEIKRA
modifications: Mac2-158 VH sequence; Mac2-158 VL sequence
notes: IQ Products
fraction of peripheral blood dendritic cells recognized as CD163 expressing: 32.3%
